Measured values: paper PMC5285506

System: T1, Rob (Staphylococcus aureus FK300 (rsbU-repaired NCTC8325-4 derivative)), ORF:92c4d64d
T1 sequence: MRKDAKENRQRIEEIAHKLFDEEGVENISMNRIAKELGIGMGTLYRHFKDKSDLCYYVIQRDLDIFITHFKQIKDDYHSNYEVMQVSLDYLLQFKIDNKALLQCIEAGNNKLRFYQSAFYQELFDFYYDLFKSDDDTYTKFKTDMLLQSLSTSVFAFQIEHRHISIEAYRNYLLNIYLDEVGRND
Assay: EMSA
Conditions: 10 mM HEPES pH 8.0, 60 mM KCl, 4 mM MgCl2, 0.1 mM EDTA, 0.1 mg/ml BSA, 0.25 mM DTT, 5% glycerol, 1 ug salmon sperm DNA and 1 ug poly(dI-dC) per 20 ul, room …

TTGCAATTCCTTTACCTACCTTTCGTTAGTTAGGTTGTAAGCCATATGGTAATTGATAGTATTTTAATTTGCAATAGATT (double strand) [SHORT-2]
binding: no binding

ACAAATATTTCCGTTTAATTATAACAACAATCTATTGCAAATTAAAATACTATCAATTACCATATGGCTTACAACCTAACTAACGAAAGGTAGGTAAAGGAATTGCAA (double strand) [SHORT-1 (108 bp)]
binding: binds
